# The nanobody polyreactivity screen of Harvey et al. (2022)
# Experiment: yeast display, Sf9 membrane polyspecificity reagent, FACS + sequencing; frameworks hold sequencing errors
# In short: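 A nanobody's polyreactivity label depends on the gate it was sorted from. Yeast display cells were stained with 10% biotinylated, detergent-solubilized Sf9 membrane reagent for 1 hour at 4 °C, enriched on streptavidin microbeads and sorted by FACS. The low and high (top ~1%) gates were set on anti-HA fluorescence for expression and streptavidin fluorescence for reagent binding.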
row,Sequence,polyreactivity (PSR sort gate)
1,QVQLVESGGGLVQAGGSLRLSCAASGRIFVYNAMGWYRQAPGQERELVAAISRGGSTNYADSVKGRFTISRDNAKNTVYLQMNSLKPEDTAVYYCAADIYQYGYDYWGQGTQVTVSS,low polyreactivity
2,QVQLVESGGGLVQAGGSLRLSCAASGRIFVYNVMGWYSQSPGKERELVAAISWGTGSTYADSVKGRFTISRDNAKNTVYLQMNSLKPEDTAVYYCADDSFIPPYDHWGQGTQVTVSS,low polyreactivity
3,QVQLVESGGGLVQAGGSLRLSCAASGRIFVYYAMGWYRPAPGKERELVAAITSGGSTYYADSVKGRFTISRDNANNTVYLQMNSLKPEDTAVYYSAAYRYYYLVYQQHREYGYWGQGSQVTVSS,high polyreactivity
4,QVQLVESGGGLVQAGGSLRLSCAASGRIFVYYTMGWYRQAPGKERELVAAITGSGGSTYYADSVKGRFTISRDNAKNTVYLQMNSLKPEDTAVYYCAARYASTGGGYKYYYWGQGTQVTVSS,high polyreactivity
5,QVQLVESGGGLVQAGGSLRLSCAASGRIFVYYVMGWYRQAPGKERELVAAITYSGGSTYYADSVKGRFTISRDNAKNTVYLQMNRLKTEDTAVYYCNKVDAFGIVRLYYWGQGTQVTVSS,low polyreactivity
6,QVQLVESGGGLVQAGGSLRLSCAASGRIFWANAMGWYRQAPGKERELVAAISRRGGSTYYADSVKGRFTISRDNAKNTVSLQMNSLKPEDTAVYYCNAVSPYTSDDYDYWGQGTQVTVSS,high polyreactivity
7,QVQLVESGGGLVQAGGSLRLSCAASGRIFWDIDMGWYRQAPGKEWELVAAISRRGGSTSYADSVKGRFTISRDNAKTTVYLQINSLKPEDTAVYYCNVRTRWTRVRRYDYWGQGTQVTVSS,high polyreactivity
8,QVQLVESGGGLVQAGGSLRLSCAASGRIFWDNAMGWYRQAPGKERELVAAISDSVVITYYADSVKGRFTISRDNAKNTVYLQMNSLKPEDTAVYYCAADKRGSVYLSSFWMDYWGQGTQVTVSS,low polyreactivity
9,QVQLVESGGGLVQAGGSLRLSCAASGRIFWHYAMGWYRQAPGKERELVAAIDYSGGRTRYADSVKGRFTISRDNAKNTVYLQMNSLKPEDTAVYYCAARRSSWGSFTGYYYWGQGTQVTVSS,high polyreactivity
10,QVQLVESGGGLVQAGGSLRLSCAASGRIFWINAMGWYRQAPGKERELVATISSGSTSYADSVKGRFTISRDNAKNTVYLHLNSLKPEDTAVYYCAVSLRYTRSGAYYYWGQGTQVTVSS,low polyreactivity
11,QVQLVESGGGLVQAGGSLRLSCAASGRIFWLYAMGWYRQAPGKERELVAVISWSGGTTYYADSVKGRFTISRDNAKNTVYLQMNSLKPEYTAVYYCAAQVGYYTNYGEFDYLGQGTQVTVSS,low polyreactivity
12,QVQLVESGGGLVQAGGSLRLSCAASGRIFWPYAMGWYRQAPGKERELVAAITSGGSTYYADSVKGRFTLSRDNAKNTVYLQMTSLKPEDTAVYYCAKRSSGVSVPVAYGGIKRYNSWGQGTQVTVSS,low polyreactivity
13,QVQLVESGGGLVQAGGSLRLSCAASGRIFWRNTMGWYRQAPGKERELVAAINYSGGRTYYADSVKGRFTISRDNAKNTVYLQMNSLKPEDTAVYYCAATPPVATNGRYYYWGQGTQVTVSS,low polyreactivity
14,QVQLVESGGGLVQAGGSLRLSCAASGRIFWVNVMGRYIQAPGKERELVPAITRGASTYADSVKGRFTISRDNAKNTVYLQMNSLKPEDTAVYYCAADTKRRSIRYDYWGEGTQVTVSS,high polyreactivity
15,QVQLVESGGGLVQAGGSLRLSCAASGRIFWVNVMGWSRQAPGKERELVAAITRGASTYADSVKGRFTISRDNAKNTVYLQMNSLKPEDTAVYYCAADTKRRSIRYDYWGQGTQVTVSS,high polyreactivity
16,QVQLVESGGGLVQAGGSLRLSCAASGRIFWYYAMGWYRQAPGKERELVATISSRSGSTYYADSVKGRFTISRDNAKNTVNLQMNSLKPEDTAVYYCAAGTPYYLGYRHNYWGQGTQVTVSS,high polyreactivity
17,QVQLVESGGGLVQAGGSLRLSCAASGRIFWYYAMGWYRQAPGKERELVDAISVDGGSTYDADSVKGRFTISRDNAKNTVYLQMNSLKPEDTAIYYCAAQKYPGFTHGYWGQGTQVTVSS,low polyreactivity
18,QVQLVESGGGLVQAGGSLRLSCAASGRIFWYYAVGWYRQAPGKERELVARISSSGGSTYYADSVKGRFTISRDNANNTVYLQMNSLKPEDTAVYYCAKERYSGSSRYPMDYWGQGTQVTVSS,high polyreactivity
19,QVQLVESGGGLVQAGGSLRLSCAASGRIFWYYDMGWYRQAPGKERELVAAITSGGRTYYADSVKGRFTISRDNAKNTVYLQMNRLKPEDTAVYYCAAEGFYTTGSPYSGGLDYWGQGTQVTVSS,low polyreactivity
20,QVQLVESGGGLVQAGGSLRLSCAASGRIFYANVMGWYRQAPGKEREFVSAIRWSGGRSYYADSVKGRFTISRDNAKYTVYLQMNSLKPEDTAVYYCAADGRVQSPQKFGYDYWGQGTQVTVSS,low polyreactivity
21,QVQLVESGGGLVQAGGSLRLSCAASGRIFYAYAMGWYRPAPGKERELVAAITWRGGRTFYADSVKGRFTISRDNAKNTVYLQMNSLKPEDTAVYYCATRGAPYGMDYWGQGTQVTVSS,high polyreactivity
22,QVQLVESGGGLVQAGGSLRLSCAASGRIFYAYAMGWYRQAPGKEREFVAAISKRGGSTYYADSVKGRFTISRDNAKNTVYFQMNSLKPEDTAVYYCAADHEAIVRYDYWGQGTQVTVSS,low polyreactivity

row,Sequence,polyreactivity (PSR sort gate)
1,QVQLVESGGGLVQAGGSLRLSCAASGRIFYAYAMGWYRQAPGKERELVAAISSGGSTKYADSVKGRFTISRDNAKNTVYLQMNSLKPEDTAVYYCNADATAQSFGTLFDYWGQGTQVTVSS,low polyreactivity
2,QVQLVESGGGLVQAGGSLRLSCAASGRIFYAYAMGWYRQAPGKERELVAAISWSGGSTYYADSVKGRFTISRDNAKNTVNLQMNSLKPEDTAVYYCNADYWGQGTQVTVSS,low polyreactivity
3,QVQLVESGGGLVQAGGSLRLSCAASGRIFYAYAMGWYRQAPGTERELVAAISSGGSTKYADSVKGRFTISRDNAKNTVYLQMNSLKPEDTAVYYCNADATAQSFGSLFDYWGLGTQVTVSS,low polyreactivity
4,QVQLVESGGGLVQAGGSLRLSCAASGRIFYDYTMGWYRQAPGKERELVAAINSGGGSTYYADSVKGRFTISRDNAKNTVYLQMNSLKPEDTAVYYCNADGQWNIWEYDYWGQGTQVTVSS,high polyreactivity
5,QVQLVESGGGLVQAGGSLRLSCAASGRIFYFNAMGWYRPAPGKDRELVADISSGGRTNYADSVKGRFTISRDNAKNTVYLQMNSLKPEDTAVYYCNAEAYTSSGGYRGYDFDYWGQGTQVTVSS,low polyreactivity
6,QVQLVESGGGLVQAGGSLRLSCAASGRIFYFYAMGWYRQAPGKERELVAAIDWSGGSTYYADSVKGRFTISRDNAKNTVYLQMNSLKPEDTAVYSCAARWRSKGVQYYYWGQGSQVTVSS,high polyreactivity
7,QVQLVESGGGLVQAGGSLRLSCAASGRIFYFYVMGWYRQAPGKERELVAGISDGSTNYADSVKGRFTISRDNAKNTVYLQMNSLKPEDTAVYYCAKDPLVIRFVQGRFGYDYWGQGTQVTVSS,low polyreactivity
8,QVQLVESGGGLVQAGGSLRLSCAASGRIFYGNPMGWYRQAPGKERELVAAISSGGGSTYYADSVKGRFTISRDNAKNTVYLQMNSLKPEDTAVYYCAADPVHRFPGTGGYWGQGTQVTVSS,low polyreactivity
9,QVQLVESGGGLVQAGGSLRLSCAASGRIFYGYTMGWYRQAPGKERELVAAITWSGGSTHYADSVKGRFTISRDNAKNTVYLQMNSLKPEVTAVYYCNARRRSVYRGLYDYWGQGTQVTVSS,high polyreactivity
10,QVQLVESGGGLVQAGGSLRLSCAASGRIFYGYTMGWYRQAPGKERELVARISSSGSTYYADSVKGRFTISRDNAKNTVYLQMNSLKPEDTAVYYCAAVRRRYGYDYWGQGTQVTVSS,high polyreactivity
11,QVQLVESGGGLVQAGGSLRLSCAASGRIFYGYVMGLYRQAPGKERELVAAISLSGGRTYYADSVKGRFTISRDNAKNTVYLQMNSLKPEDTAVYYCAAEGIKGISYGHDYWGQGTQVTVSS,low polyreactivity
12,QVQLVESGGGLVQAGGSLRLSCAASGRIFYHYAMGWYRQAPGKERELVAASNSSGGSTHYADSVKGRFTISRDNAKNTVYLQMNSLKPEDTAVYYCAADGYWRDYSGYWDYYYIYDYWGQGTQVTVSS,low polyreactivity
13,QVQLVESGGGLVQAGGSLRLSCAASGRIFYINAMGWYRQAPGKERELVAAISWSGSSTYYADSVKGRFTISRDNAKNTVYLQMNSLKPEDTAVYYCAAVSYKRVDYWGQGTQVTVSS,high polyreactivity
14,QVQLVESGGGLVQAGGSLRLSCAASGRIFYINAMGWYRQAPGKERELVAAITGGDGSTTYADSVKGRFTISRDNAKNTVYLQMNSLKPEDTAVYYCNADTARKYAESQFDHWGQGTQVTVSS,low polyreactivity
15,QVQLVESGGGLVQAGGSLRLSCAASGRIFYIYTMGWYRQAPGKEREFVAGINWNGGSTYYADSVKGRFTISRDNAKNTVYLQMISLKPEDSEVYYCNADQYWDRYYYWGQGTQVTVSS,low polyreactivity
16,QVQLVESGGGLVQAGGSLRLSCAASGRIFYKNVMGWYRQAPGKESELVATITRRGGRTFYADSVKGRFTISRDNAKNTVYLQMNSLKPEDTAVYYCATRRRIRSSFYYDIDYWGQGTQVTVSS,high polyreactivity
17,QVQLVESGGGLVQAGGSLRLSCAASGRIFYKYALGGYRQAPGKERELVAAISYSGGSTYYADSVKGRFTISRDNAKNTVYLQMKSLKPEDNAVYYCNAKPPFGVRSWGDYWGQGTQVTVSS,low polyreactivity
18,QVQLVESGGGLVQAGGSLRLSCAASGRIFYKYTMGWYRQAPGKERELVAAITDSDDSTYYADSVKGRFTISRDNAKITVYLQMNSLKPEDTAVYYCAASGPVTESDMDYWGQGTQVTVSS,low polyreactivity
19,QVQLVESGGGLVQAGGSLRLSCAASGRIFYLNAMGWYRQAPGKERELVAAISSRGSRTYYADSVKGRFTISRDNAKNTVYLQMNSLKPEDTAVYYCNVRQRKQPDTDDYWGQGTQVTVSS,high polyreactivity
20,QVQLVESGGGLVQAGGSLRLSCAASGRIFYLNAMGWYRVAPGKERELVAAITRSAASTHYADSVKGRFTISRDNAKNTVYLQMNSLKPEDTAVYYCAARFWYDYRHYDYWGQGTQVTVSS,low polyreactivity
21,QVQLVESGGGLVQAGGSLRLSCAASGRIFYLYAMGWYRQAPGKDRELVAAITWSGGSTTYADSVKGRFTISRDTAKNTVYLQMNSLKPEDTAVYYSNADGWIFPSFSPMDYWGQGTQVTVSS,low polyreactivity
